Results on 8 molecules are retold here after article PMC3967975 (Molecular Biology of the Cell, 2014).

The labels stand for the following.
B1: His::lamin R55H (full-length Ce-lamin bearing the R55H mutation) (natural protein, C. elegans, UniProt Q21443 1-566, looked up)
chain: MSSRKGTRSSRIVTLERSANSSLSNNGGGDDSFGSTLLETSRLQEKDHLTSLNSHLATYIDKVRQLEQENNRLQVQIRDIEVVEKKEKSNLADRFEAEKARLRRALDSAQDELAKYRIEYDAAKVEVKKLKPQVEKLERELAGAEEQALHAQSIADQSQAKQKTLQARNDKLVVENDDLKKQNITLRDTVEGLKKAVEDETLLRTAANNKIKALEEDLAFALQQHKGELEEVRHKRQVDMTTYAKQINDEYQSKLQDQIEEMRAQFKNNLHQNKTAFEDAYKNKLNAARERQEEAVSEAIHLRARVRDLETSSSGNASLIERLRSELDTLKRSFQEKLDDKDARIAELNQEIERMMSEFHDLLDVKIQLDAELKTYQALLEGEEERLNLTQEAPQNTSVHHVSFSSGGASAQRGVKRRRVVDVNGEDQDIDYLNRRSKLNKETVGPVGIDEVDEEGKWVRVANNSEEEQSIGGYKLVVKAGNKEASFQFSSRMKLAPHASATVWSADAGAVHHPPEVYVMKKQQWPIGDNPSARLEDSEGDTVSSITVEFSESSDPSDPADRCSIM
B2: His::emerin 1–125 (Ce-emerin residues 1–125, nucleoplasmic domain only) (domain or fragment, C. elegans, UniProt O01971 1-125, looked up)
chain: MDVSQLTDAELRDSLKSHGVSVGPIVATTRKLYEKKLIKLSDGSINNQSNLNDSQFNEDSLIISSSPKKSPPQRVFQNVSAATAAATTSPESDSDDCEESMRYLTEEEMAADRASARQAQSNKGG
B3: Ce-lamin tail domain (residues 388–566), His-tagged (domain or fragment, C. elegans, UniProt Q21443 388-566, looked up)
chain: NLTQEAPQNTSVHHVSFSSGGASAQRGVKRRRVVDVNGEDQDIDYLNRRSKLNKETVGPVGIDEVDEEGKWVRVANNSEEEQSIGGYKLVVKAGNKEASFQFSSRMKLAPHASATVWSADAGAVHHPPEVYVMKKQQWPIGDNPSARLEDSEGDTVSSITVEFSESSDPSDPADRCSIM
B4: MBP::BAF-1 (wild-type C. elegans barrier to autointegration factor 1 fused to maltose-binding protein) (natural protein, UniProt Q03565 1-89, looked up)
chain: MSTSVKHREFVGEPMGDKEVTCIAGIGPTYGTKLTDAGFDKAYVLFGQYLLLKKDEDLFIEWLKETAGVTANHAKTAFNCLNEWADQFM
B5: MBP::BAF-1 F46E (natural protein, C. elegans, UniProt Q03565 1-89, looked up)
chain: B4 chain with F46E
B6: MBP::BAF-1 K6A (natural protein, C. elegans, UniProt Q03565 1-89, looked up)
chain: B4 chain with K6A
B7: MBP::BAF-1 S4E (natural protein, C. elegans, UniProt Q03565 1-89, looked up)
chain: B4 chain with S4E
B8: MBP::BAF-1 S4A (natural protein, C. elegans, UniProt Q03565 1-89, looked up)
chain: B4 chain with S4A

Common to all, as to experiment: SPR
Data set [1] deals with the molecule itself.
The target in data set [2] is B1.
Data set [3] deals with the molecule itself. This is another data set of the same source.
In data set [4] the target is B1. This is another data set of the same source.
The target in data set [5] is B2.

Residue numbers refer to the chain shown, from its start. Names and notes keep the numbering of the source. Read-outs that look alike come from different tables or passages of the source.

By Kd is commonly meant the free concentration of one partner at which half of the binding sites on the other are occupied at equilibrium, for simple one-to-one binding. A high value points to weaker binding. Regarding B1, in data set [1], the dissociation constant (Kd) was found to be 0.0037 µM. Consider B2, for which the Kd is 0.004 to 0.005 µM in data set [2] and 0.014 µM in data set [3].

Molecule B3 returned a Kd in data set [4] of 0.00056 µM. As for B4, the figures for the Kd in data set [4] and in data set [5] were 0.084 µM and 0.057 µM, respectively. Consider B5, for which the Kd came out at 0.623 µM in data set [4] and 0.0056 µM in data set [5]. B6: the results for the Kd in data set [4] and in data set [5] were 0.198 µM and 0.031 µM, respectively.

With B7, the values for the Kd in data set [4] and in data set [5] were 32.1 µM and approximately 0.057 µM, respectively. The like results for B8 were, in that order, 0.281 µM and 0.02 µM.
